Read-outs that look alike come from different tables or passages of the source.
Tests used:
KB cells = experiment: Uptake of ^67 Ga-DF-folate complex by cultured KB cells; assay type: cell-based, human
Method: Cell Culture. KB cells, a human nasopharyngeal epidermal carcinoma cell line that greatly overexpresses the folate binding protein, were cultured continuously as a monolayer at 37° C. in a humidified atmosphere containing 5% CO2 in folate-deficient modified Eagle's medium (FDMEM) (a folate-free modified Eagle's medium supplemented with 10% (v/v) heat-inactivated fetal calf serum as the only source of folate) containing penicillin (50 units/mL), streptomycin (50 μg/mL), and 2 mM L-glutamine. The final folate concentration in the complete FDMEM is the physiological range (~2 nM). 48 h prior to each experiment, the cells were transferred to 35 mm culture dishes at 5×10^5 cells per dish and grown to ~80% confluent.
Because folate and its conjugates bind to cell surface receptors at 4° C., but are capable of endocytosis only at higher temperatures, it is possible to separately evaluate the kinetics of binding the internalization of folate by measuring the rates of folate conjugate uptake at the two temperatures. […] By the end of the 30 min incubation, binding approached to saturation with ~18% of the initial radioactivity found associated with a cell surface.
Incubation at 37° C., a temperature which permits both binding and endocytosis, yielded similar kinetic results, however, maximal uptake reached 32% of the total conjugate added. Presumably, the difference in magnitude of the two cellular uptake curves reflects the ability of the folate receptor to internalize the conjugate and then recycle to the cell surface in its unoccupied form. […] This latter result is consistent with the inability of the α-conjugate to compete with free folate for the cell surface receptor.
To verify the involvement of a cell surface folate receptor in mediating the uptake of ^67 Ga-DF-folate(γ), binding and internalization of the complex were evaluated as a function of the complex's concentration. Cellular uptake of ^67 Ga-DF-folate(γ) was concentration dependent at both 4° C. and 37° C., saturating at levels of 20% and 35% of the total radioactivity added, respectively.

[1] = system: Subcutaneous KB Cell Tumors; conditions: mouse, in vivo, iv; for Tumor-to-Non-target Ratio: Tumor/blood / Tumor-to-Non-target Ratio: Tumor/kidney / Tumor-to-Non-target Ratio: Tumor/liver / Tumor-to-Non-target Ratio: Tumor/muscle: 240 min; for Percentage of Injected Dose per Gram of Tissue: Blood / Percentage of Injected Dose per Gram of Tissue: Heart / Percentage of Injected Dose per Gram of Tissue: Kidney / Percentage of Injected Dose per Gram of Tissue: Liver / Percentage of Injected Dose per Gram of Tissue: Lungs / Percentage of Injected Dose per Gram of Tissue: Muscle / Percentage of Injected Dose per Gram of Tissue: Tumor: 4 h
KB Tumors [2] = experiment: Biodistribution of ^125 I-RNase-Folate conjugate and ^125 I-RNase control following I.V. administration to athymic mice with KB tumors; conditions: folate-free diet
KB Tumors [3] = conditions: mouse, in vivo, iv
[4] = In vivo delivery to mice of ^125 I soybean trypsin inhibitor; conditions: 15 minutes after tail vein injection, perfused
Method: Mice (25 g) were then injected with either the biotinylated SBTI or the control SBTI by insertion of a hypodermic syringe containing a 25 gauge needle into the tail vein of the mouse. After 15 minutes, each mouse was sacrificed and then perfused with heparin-containing isotonic saline via the direct cardiac influx and efflux method.

[5] = system: KB cells (a human nasopharyngeal cell line); experiment: Uptake of ^125 I-labeled folate-labeled protein by KB cells; assay type: cell-based; conditions: procedure of Example 17

## O=C([O-])CC(O)(CC(=O)[O-])C(=O)[O-].[67Ga+3] [^67 Ga-citrate, reference compound]
KB cells; 37° C., 30 min
  cell-associated ^67 Ga radioactivity, fold lower than ^67 Ga-DF-folate(γ): 106 fold
[1]
  Tumor-to-Non-target Ratio: Tumor/blood: 0.84 ± 0.19
  Tumor-to-Non-target Ratio: Tumor/kidney: 2.4 ± 0.3
  Tumor-to-Non-target Ratio: Tumor/liver: 2.3 ± 0.2
  Tumor-to-Non-target Ratio: Tumor/muscle: 5.4 ± 0.7
  Percentage of Injected Dose per Gram of Tissue: Blood: 13.5 ± 3.2 % of injected dose per gram
  Percentage of Injected Dose per Gram of Tissue: Heart: 3.4 ± 0.2 % of injected dose per gram
  Percentage of Injected Dose per Gram of Tissue: Kidney: 4.6 ± 0.4 % of injected dose per gram
  Percentage of Injected Dose per Gram of Tissue: Liver: 4.7 ± 0.3 % of injected dose per gram
  Percentage of Injected Dose per Gram of Tissue: Lungs: 9.1 ± 2.7 % of injected dose per gram
  Percentage of Injected Dose per Gram of Tissue: Muscle: 2.04 ± 0.29 % of injected dose per gram
  Percentage of Injected Dose per Gram of Tissue: Tumor: 10.9 ± 0.2 % of injected dose per gram

## CC(=O)N([O-])CCCCCNC(=O)CCC(=O)N([O-])CCCCCNC(=O)CCC(=O)N([O-])CCCCCN.[67Ga+3] [^67 Ga-DF, reference compound]
KB cells; controls
  uptake by the KB cells: did not show any significant uptake
[1]
  Tumor-to-Non-target Ratio: Tumor/blood: 3.9 ± 1.2
  Tumor-to-Non-target Ratio: Tumor/kidney: 0.08 ± 0.01
  Tumor-to-Non-target Ratio: Tumor/liver: 1.16 ± 0.10
  Tumor-to-Non-target Ratio: Tumor/muscle: 2.56 ± 0.15
  Percentage of Injected Dose per Gram of Tissue: Blood: 0.026 ± 0.009 % of injected dose per gram
  Percentage of Injected Dose per Gram of Tissue: Heart: 0.021 ± 0.002 % of injected dose per gram
  Percentage of Injected Dose per Gram of Tissue: Kidney: 1.26 ± 0.19 % of injected dose per gram
  Percentage of Injected Dose per Gram of Tissue: Liver: 0.082 ± 0.010 % of injected dose per gram
  Percentage of Injected Dose per Gram of Tissue: Lungs: 0.054 ± 0.010 % of injected dose per gram
  Percentage of Injected Dose per Gram of Tissue: Muscle: 0.037 ± 0.001 % of injected dose per gram
  Percentage of Injected Dose per Gram of Tissue: Tumor: 0.094 ± 0.004 % of injected dose per gram

B1: ^125 I-RNase-Folate: ^125 I labeled ribonuclease-folate conjugate (conjugate, UniProt P61823 27-150, looked up)
Ribonuclease pancreatic: KETAAAKFERQHMDSSTSAASSSNYCNQMMKSRNLTKDRCKPVNTFVHESLADVQAVCSQKNVACKNGQTNCYQSYSTMSITDCRETGSSKYPNCAYKTTQANKHIIVACEGNPYVPVHFDASV
modifications: 125I label; folate conjugated
KB Tumors [2]; 1 hour after i.v.
  Percentage of Injected Dose per Gram: Brain: 0.29 ± 0.04 % of injected dose per gram
KB Tumors [2]; 4 hours after i.v.
  Percentage of Injected Dose per Gram: Brain: 0.19 ± 0.14 % of injected dose per gram
KB Tumors [2]; 24 hours after i.v.
  Percentage of Injected Dose per Gram: Brain: 0.007 ± 0.001 % of injected dose per gram
KB Tumors [3]; 1 h
  Percentage of Injected Dose per Gram: Blood: 5.34 ± 1.07 % of injected dose per gram
  Percentage of Injected Dose per Gram: Bone: 3.20 ± 0.23 % of injected dose per gram
  Percentage of Injected Dose per Gram: Heart: 2.01 ± 0.22 % of injected dose per gram
  Percentage of Injected Dose per Gram: Intestines: 2.03 ± 0.28 % of injected dose per gram
  Percentage of Injected Dose per Gram: Kidney: 16.08 ± 2.76 % of injected dose per gram
  Percentage of Injected Dose per Gram: Liver: 9.78 ± 1.11 % of injected dose per gram
  Percentage of Injected Dose per Gram: Lungs: 4.19 ± 0.61 % of injected dose per gram
  Percentage of Injected Dose per Gram: Muscle: 1.73 ± 0.32 % of injected dose per gram
  Percentage of Injected Dose per Gram: Spleen: 9.94 ± 1.37 % of injected dose per gram
  Percentage of Injected Dose per Gram: Stomach: 21.07 ± 2.57 % of injected dose per gram
  Percentage of Injected Dose per Gram: Testes: 1.50 ± 0.18 % of injected dose per gram
  Percentage of Injected Dose per Gram: Tumor: 5.35 ± 0.54 % of injected dose per gram
KB Tumors [3]; 60 min
  Tumor/Blood: 1.02 ± 0.16
  Tumor/Muscle: 3.14 ± 0.43
KB Tumors [3]; 4 h
  Percentage of Injected Dose per Gram: Blood: 2.30 ± 0.62 % of injected dose per gram
  Percentage of Injected Dose per Gram: Bone: 1.17 ± 0.28 % of injected dose per gram
  Percentage of Injected Dose per Gram: Heart: 0.93 ± 0.39 % of injected dose per gram
  Percentage of Injected Dose per Gram: Intestines: 0.95 ± 0.16 % of injected dose per gram
  Percentage of Injected Dose per Gram: Kidney: 5.11 ± 1.27 % of injected dose per gram
  Percentage of Injected Dose per Gram: Liver: 3.29 ± 0.77 % of injected dose per gram
  Percentage of Injected Dose per Gram: Lungs: 1.97 ± 0.77 % of injected dose per gram
  Percentage of Injected Dose per Gram: Muscle: 0.98 ± 0.54 % of injected dose per gram
  Percentage of Injected Dose per Gram: Spleen: 2.78 ± 0.73 % of injected dose per gram
  Percentage of Injected Dose per Gram: Stomach: 26.45 ± 8.05 % of injected dose per gram
  Percentage of Injected Dose per Gram: Testes: 1.0 ± 0.15 % of injected dose per gram
KB Tumors [3]; 1440 min
  Tumor/Blood: 11.88 ± 3.71
  Tumor/Muscle: 32.6 ± 6.7
KB Tumors [3]; 24 h
  Percentage of Injected Dose per Gram: Blood: 0.04 ± 0.01 % of injected dose per gram
  Percentage of Injected Dose per Gram: Bone: 0.09 ± 0.03 % of injected dose per gram
  Percentage of Injected Dose per Gram: Heart: 0.024 ± 0.006 % of injected dose per gram
  Percentage of Injected Dose per Gram: Intestines: 0.05 ± 0.006 % of injected dose per gram
  Percentage of Injected Dose per Gram: Kidney: 0.72 ± 0.07 % of injected dose per gram
  Percentage of Injected Dose per Gram: Liver: 0.38 ± 0.03 % of injected dose per gram
  Percentage of Injected Dose per Gram: Lungs: 0.04 ± 0.01 % of injected dose per gram
  Percentage of Injected Dose per Gram: Muscle: 0.013 ± 0.002 % of injected dose per gram
  Percentage of Injected Dose per Gram: Spleen: 0.23 ± 0.04 % of injected dose per gram
  Percentage of Injected Dose per Gram: Stomach: 0.26 ± 0.14 % of injected dose per gram
  Percentage of Injected Dose per Gram: Testes: 0.021 ± 0.004 % of injected dose per gram
  Percentage of Injected Dose per Gram: Tumor: 0.41 ± 0.02 % of injected dose per gram

B2: ^125 I-RNase: ^125 I labeled ribonuclease (lacking folate), control (protein, UniProt P61823 27-150, looked up)
Ribonuclease pancreatic: B1 Ribonuclease pancreatic
modifications: 125I label
KB Tumors [2]; 1 hour after i.v.
  Percentage of Injected Dose per Gram: Brain: 0.19 ± 0.06 % of injected dose per gram
KB Tumors [2]; 4 hours after i.v.
  Percentage of Injected Dose per Gram: Brain: 0.06 ± 0.004 % of injected dose per gram
KB Tumors [2]; 24 hours after i.v.
  Percentage of Injected Dose per Gram: Brain: 0.0055 ± 0.0006 % of injected dose per gram

B3: Control SBTI: ^125 I soybean trypsin inhibitor left as an unmodified control (protein, UniProt P01070 25-205, looked up)
Trypsin inhibitor A: DFVLDNEGNPLENGGTYYILSDITAFGGIRAAPTGNERCPLTVVQSRNELDKGIGTIISSPYRIRFIAEGHPLSLKFDSFAVIMLCVGIPTEWSVVEDLPEGPAVKIGENKDAMDGWFRLERVSDDEFNNYKLVFCPQQAEDDKCGDIGISIDHDDGTRRLVVSKNKPLVVQFQKLDKESL
modifications: 125I label
[4]
  Counts per minute/gram wet weight: Brain: 0 Counts per minute/gram wet weight
  Counts per minute/gram wet weight: Heart: 0 Counts per minute/gram wet weight
  Counts per minute/gram wet weight: Intestine: 0 Counts per minute/gram wet weight
  Counts per minute/gram wet weight: Kidney: 5152 Counts per minute/gram wet weight
  Counts per minute/gram wet weight: Liver: 535 Counts per minute/gram wet weight
  Counts per minute/gram wet weight: Lung: 107 Counts per minute/gram wet weight
  Counts per minute/gram wet weight: Muscle: 0 Counts per minute/gram wet weight

B4: SBTI: soybean trypsin inhibitor, folate-ligated as in Example 17 (conjugate, UniProt P01070 25-205, looked up)
Trypsin inhibitor A: B3 Trypsin inhibitor A
modifications: folate conjugated
[5]
  uptake of SBTI by KB cells: Folate ligation was again demonstrated to be essential for uptake

Reference: patent US5688488A, “Composition and method for tumor imaging” (priority 1995, dated 1997)
